Our source for the interaction score values is paper PMC10397247.

What all share (experiment): two-hybrid library CCNG1;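 note: natural log of median RNA to DNA barcode read ratio; higher means stronger binding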
In one experiment the target is T1, 4H2586-bN.
T1 chain: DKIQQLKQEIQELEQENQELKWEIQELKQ

Another experiment has as its target T2, 4H2627-bN.
T2 chain: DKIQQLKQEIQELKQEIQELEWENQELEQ

A further experiment deals with T3, 4H2673-bN.
T3 chain: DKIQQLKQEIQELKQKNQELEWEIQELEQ

A further experiment addresses T4, 4H2702-bN.
T4 chain: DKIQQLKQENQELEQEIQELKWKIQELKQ

The next experiment has as its target T5, 4H3010-bN.
T5 chain: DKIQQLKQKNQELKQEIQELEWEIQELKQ

Another experiment addresses T6, 4H3112-bN.
T6 chain: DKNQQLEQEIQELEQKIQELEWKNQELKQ

A further experiment deals with T7, 4H3427-bN.
T7 chain: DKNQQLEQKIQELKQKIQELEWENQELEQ

In another experiment the target is T8, 4H346-bN.
T8 chain: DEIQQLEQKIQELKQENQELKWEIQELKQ

The target in another experiment is T9, 4H3628-bH.
T9 chain: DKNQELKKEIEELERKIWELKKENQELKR

The next experiment has as its target T10, 4H3926-bN.
T10 chain: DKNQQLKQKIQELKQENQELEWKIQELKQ

The next experiment addresses T11, 4H4073-bN.
T11 chain: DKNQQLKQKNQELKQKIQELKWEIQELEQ

The target in another experiment is T12, 4H457-bN.
T12 chain: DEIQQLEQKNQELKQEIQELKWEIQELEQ

Another experiment has as its target T13, 4H575-bN.
T13 chain: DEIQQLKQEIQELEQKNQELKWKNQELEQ

The target of the next experiment is T14, 4H683-bN.
T14 chain: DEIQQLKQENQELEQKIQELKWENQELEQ

A further experiment concerns the target T15, 4H754-bN.
T15 chain: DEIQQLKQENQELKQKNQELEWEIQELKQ

In the next experiment the target is T16, 4H780-bN.
T16 chain: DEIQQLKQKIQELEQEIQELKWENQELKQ

The next experiment concerns the target T17, 4H797-bN.
T17 chain: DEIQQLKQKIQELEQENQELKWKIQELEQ

A further experiment has as its target T18, 4H855-bN.
T18 chain: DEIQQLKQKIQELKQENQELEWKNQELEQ

The target of another experiment is T19, 4H918-bN.
T19 chain: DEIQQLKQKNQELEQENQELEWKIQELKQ

The target of another experiment is T20, 4H953-bN.
T20 chain: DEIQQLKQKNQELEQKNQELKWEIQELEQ

For the next experiment, the target named is T21, 4H968-bN.
T21 chain: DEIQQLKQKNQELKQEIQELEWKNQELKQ

In another experiment the target is T22, 4H363-bN.
T22 chain: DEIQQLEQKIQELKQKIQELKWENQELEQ

In a further experiment the target is T23, 4H3907-bN.
T23 chain: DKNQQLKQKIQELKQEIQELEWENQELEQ

The target of a further experiment is T24, 4H3961-bN.
T24 chain: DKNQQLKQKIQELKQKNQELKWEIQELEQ

Another experiment addresses T25, 4H470-bN.
T25 chain: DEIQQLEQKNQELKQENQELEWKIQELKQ

The next experiment concerns the target T26, O15-bH.
T26 chain: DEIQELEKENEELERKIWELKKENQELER

The target of the next experiment is T27, O16-bH.
T27 chain: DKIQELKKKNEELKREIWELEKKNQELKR

Another experiment deals with T28, O2-bH.
T28 chain: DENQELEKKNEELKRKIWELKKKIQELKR

The target of a further experiment is T29, O3-bH.
T29 chain: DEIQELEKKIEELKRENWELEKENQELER

The next experiment deals with T30, O4-bH.
T30 chain: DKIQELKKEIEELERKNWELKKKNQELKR

Another experiment addresses T31, O5-bH.
T31 chain: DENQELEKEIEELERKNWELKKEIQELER

The target of a further experiment is T32, O6-bH.
T32 chain: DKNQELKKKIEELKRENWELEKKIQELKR

A further experiment addresses T33, O7-bH.
T33 chain: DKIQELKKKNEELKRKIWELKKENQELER

The target in a further experiment is T34, O8-bH.
T34 chain: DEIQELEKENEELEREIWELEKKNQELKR

Another experiment deals with T35, O9-bH.
T35 chain: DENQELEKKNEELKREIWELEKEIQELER

The next experiment deals with T36, 4H349-bA.
T36 chain: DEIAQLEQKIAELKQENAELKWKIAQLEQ

The target in another experiment is T37, P5mSN.
T37 chain: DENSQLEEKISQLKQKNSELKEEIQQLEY

The next experiment has as its target T38, P6mSN.
T38 chain: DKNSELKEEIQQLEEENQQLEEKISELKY

For the next experiment, the target named is T39, P7mSN.
T39 chain: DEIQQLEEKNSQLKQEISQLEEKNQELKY

A further experiment concerns the target T40, P8mSN.
T40 chain: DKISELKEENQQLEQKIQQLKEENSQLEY

The target of another experiment is T41, 4H3189-bA.
T41 chain: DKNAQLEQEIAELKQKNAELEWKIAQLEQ

In another experiment the target is T42, 4H883-bH.
T42 chain: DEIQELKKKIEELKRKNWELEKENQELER

For DKIQQLKQEIQELEQENQELKWEIQELKQ [4H2586-bN], the interaction score with 4H2586-bN was 0.806; with 4H2627-bN it was -0.115; in the experiment with 4H2673-bN, -1.47; with 4H2702-bN it was -0.448; with 4H3010-bN it was 0.0264; with 4H3112-bN, -1.32. For the same molecule, the interaction score with 4H3427-bN was 0.526; in the experiment with 4H346-bN it was 1.97; with 4H3628-bH, 1.41; with 4H3926-bN, 0.209; with 4H4073-bN, -0.362; in the experiment with 4H457-bN, -0.912. The interaction score with 4H575-bN is -1.1; with 4H683-bN, 0.147; with 4H754-bN, -1.88; with 4H780-bN, -1.16; with 4H797-bN, -0.469; in the experiment with 4H855-bN, -0.916. For the same molecule, the interaction score with 4H918-bN is -1.12; with 4H953-bN, -1.01; in the experiment with 4H968-bN it was -1.31.

With DEIQQLEQKIQELKQKIQELKWENQELEQ [4H363-bN], the interaction score with 4H363-bN was 0.903; with 4H3907-bN it was 0.321; with 4H3961-bN, -0.162; in the experiment with 4H470-bN, -0.702.

As to DENQELEKEIEELERENWELEKKIQELKR [O14-bH], the interaction score with O15-bH is 1.43; in the experiment with O16-bH, 1.45; with O2-bH, -1.83; in the experiment with O3-bH it was -0.0193; in the experiment with O4-bH, 0.39; with O5-bH, -1.91. The interaction score was 1.63 with O6-bH, 1.56 with O7-bH, -1.78 with O8-bH and 0.497 in the experiment with O9-bH.

With DEIQELEKENEELERKIWELKKENQELER [O15-bH], the interaction score with O15-bH is 0.268; with O16-bH, 1.62; with O2-bH, -0.549; with O3-bH, -0.38; with O4-bH, -1.19; with O5-bH, -1.6. Besides, the interaction score was -0.0351 in the experiment with O6-bH, 1.73 with O7-bH, 0.416 in the experiment with O8-bH and -0.267 with O9-bH.

As for DENQQLKQKIQELEQKIQELEWKNQELEQ [4H1831-bN], the interaction score with 4H2586-bN was -0.466; with 4H2627-bN, 1.7; with 4H2673-bN it was -0.269; with 4H2702-bN it was -0.111; in the experiment with 4H3010-bN, -0.741; in the experiment with 4H3112-bN, -0.567. Further, the interaction score with 4H3427-bN is -0.445; with 4H346-bN, 0.142; in the experiment with 4H349-bA, -1.73; with 4H3926-bN, -0.39; in the experiment with 4H4073-bN it was 0.223; with 4H457-bN, -1.9. The interaction score with 4H575-bN is -0.248; in the experiment with 4H683-bN it was -2.14; with 4H754-bN it was -0.46; in the experiment with 4H780-bN, -1.02; with 4H797-bN it was -0.203; in the experiment with 4H855-bN, -0.282. Moreover, the interaction score in the experiment with 4H918-bN was -0.624; with 4H953-bN, -0.677; with 4H968-bN it was -0.157.

Consider DKIQELKKKNEELKREIWELEKKNQELKR [O16-bH], for which the interaction score is 0.441 with O16-bH; -1.39 with O2-bH; 1.41 with O3-bH; 0.0481 with O4-bH; -0.611 with O5-bH; 1.06 with O6-bH. Moreover, the interaction score with O7-bH is 1.17; in the experiment with O8-bH, 0.7; with O9-bH, -0.421.

With DKNQELKKKIEELKRKNWELKKEIQELER [O13-bH], the interaction score was 1.51 in the experiment with O15-bH; -1.44 with O16-bH; -2.29 with O2-bH; 0.496 in the experiment with O3-bH; -0.471 in the experiment with O4-bH; 0.194 in the experiment with O5-bH. Besides, the interaction score in the experiment with O6-bH is -0.527; in the experiment with O7-bH, -0.211; in the experiment with O8-bH it was 0.569; in the experiment with O9-bH, -0.0315.

With DENSQLEEKISQLKQKNSELKEEIQQLEY [P5mSN], the interaction score was -1.4 with P5mSN, 0.0393 in the experiment with P6mSN, -0.763 in the experiment with P7mSN and -0.632 in the experiment with P8mSN.

As for DKIQQLKQEIQELKQEIQELEWENQELEQ [4H2627-bN], the interaction score was -1.18 with 4H2627-bN; -0.336 with 4H2673-bN; -0.837 in the experiment with 4H2702-bN; -0.478 in the experiment with 4H3010-bN; -0.418 in the experiment with 4H3112-bN; -2.27 in the experiment with 4H3189-bA. Moreover, the interaction score with 4H3427-bN is -0.336; in the experiment with 4H346-bN, -1.49; with 4H3926-bN it was -0.972; with 4H4073-bN, 0.24; with 4H457-bN it was -1.44; with 4H575-bN, 0.336. In addition, the interaction score was -0.185 with 4H683-bN; -1.21 with 4H754-bN; -0.619 with 4H780-bN; -2.2 with 4H797-bN; -0.307 with 4H855-bN; 0.737 in the experiment with 4H883-bH. The interaction score with 4H918-bN is -0.935; in the experiment with 4H953-bN, -1.1; in the experiment with 4H968-bN it was -0.499.
